Data from the supplement of paper PMC10065799, “High-throughput profiling of sequence recognition by tyrosine kinases and SH2 domains using bacterial peptide display” (eLife, 2023).

molecular target: Fes (UniProt P07332); assay: phosphorylation enrichment, bacterial display (enrichment ratio); higher = better substrate or ligand; peptides without Tyr show the background
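Also: 11-residue human phosphosite peptides and single-mutation variants displayed on the E. coli surface, counted by deep sequencing, each peptide's frequency after selection divided by its frequency in the unselected input library; frequency after pTyr selection over input frequency; kinase dosed for 20-30% of maximal phosphorylation in three min.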

Sequence of Fes (P07332 whole entry, looked up): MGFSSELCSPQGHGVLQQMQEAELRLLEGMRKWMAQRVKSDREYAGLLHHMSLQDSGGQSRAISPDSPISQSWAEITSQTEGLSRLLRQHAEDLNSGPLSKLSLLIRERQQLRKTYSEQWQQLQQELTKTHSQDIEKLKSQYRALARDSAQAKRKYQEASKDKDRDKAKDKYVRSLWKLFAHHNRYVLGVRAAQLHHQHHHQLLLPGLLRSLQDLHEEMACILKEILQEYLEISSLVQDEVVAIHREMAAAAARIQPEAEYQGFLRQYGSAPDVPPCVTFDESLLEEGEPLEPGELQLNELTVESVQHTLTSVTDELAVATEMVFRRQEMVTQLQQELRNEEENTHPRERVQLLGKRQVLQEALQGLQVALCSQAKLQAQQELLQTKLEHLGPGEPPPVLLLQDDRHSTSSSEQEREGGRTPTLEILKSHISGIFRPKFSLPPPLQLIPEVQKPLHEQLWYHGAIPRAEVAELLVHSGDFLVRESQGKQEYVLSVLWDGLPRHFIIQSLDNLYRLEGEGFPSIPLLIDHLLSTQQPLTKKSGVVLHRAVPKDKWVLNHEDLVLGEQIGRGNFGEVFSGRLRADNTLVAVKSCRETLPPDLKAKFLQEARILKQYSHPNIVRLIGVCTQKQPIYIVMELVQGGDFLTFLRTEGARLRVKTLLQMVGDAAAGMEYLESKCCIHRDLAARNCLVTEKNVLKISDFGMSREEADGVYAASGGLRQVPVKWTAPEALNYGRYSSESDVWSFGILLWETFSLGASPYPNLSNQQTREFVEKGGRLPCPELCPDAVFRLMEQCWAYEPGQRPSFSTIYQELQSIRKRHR

First: VPVPGYTKLPE [SPRR3_Y146]
Second: PPGRSYSPCDY [TNS1_Y793_Y796C]
The phosphorylation enrichment of the first is lower: 1.05 for the first, 1.16 for the second.

First: HELFVYKSDEN [DOCK3_Y548_C550S_YF]
Second: RFLRGYRQHAF [HLA-A_Y137_D140H_YF]
The phosphorylation enrichment of the first is higher: 2 for the first, 1.34 for the second.

First: SDVCMYRKNIY [SYNE2_Y570]
Second: HLTNQFMQRVA [PABPC4_Y382_Y382F]
The phosphorylation enrichment of the first is higher: 1.08 for the first, 0.809 for the second.

Going from GNHISYFQSDG [CACNA1C_Y1757_V1755I_YF] to ILGLEYSLRLP [HELZ2_Y1304_V1308L], the phosphorylation enrichment rises from 0.918 to 1.44.

Going from AQQPIYVRVEG [NLRP7_Y318] to PKGTGYIKTES [STAT1_Y701_L706S], the phosphorylation enrichment rises from 0.963 to 1.2.

Compared with APIEDYGGGGG [B4GALT6_Y382], RAEIVYKSPVV [MAPT_Y711_G706R] is higher in phosphorylation enrichment: 0.965 for the first, 1.46 for the second.

Compared with RFGRKYKKVRF [F8_Y442_I438F], FEELVYETVRV [FSHB_Y76_K72E] is higher in phosphorylation enrichment: 0.841 for the first, 6.25 for the second.

First: SPQAHYRLSAF [ADAMTS9_Y100_S96P]
Second: VHNLDYFKQTT [FGFR3_Y647_K650Q_YF]
The phosphorylation enrichment of the first is lower: 0.659 for the first, 0.958 for the second.

Going from KSIDEYLKLVG [RASAL2_Y381_E379D] to VLDSHYPEDEV [C1QBP_Y188_C186S], the phosphorylation enrichment rises from 0.73 to 1.26.

First: DFLSSYSAVNE [OAT_Y85_Q90E]
Second: MGCVNYGAFIN [GLB1_Y485_R482C_YF]
The phosphorylation enrichment of the first is lower: 0.953 for the first, 1.26 for the second.

Going from TYVVLYDAELT [ERCC4_Y581_R576T] to FVTSMYNEILI [TRPV1_Y310_M315I], the phosphorylation enrichment rises from 1.16 to 1.32.

Going from IMICAYLLHRG [PTEN_Y138_V133I] to GGSSPYSRRLA [CDK13_Y351_P356A], the phosphorylation enrichment falls from 1.35 to 0.565.

Going from KFEDVYVGICL [B3GALNT1_Y269] to NFADPYRQLQF [CTNND2_Y503_YF], the phosphorylation enrichment falls from 1.33 to 0.826.

First: TQIGQYGNGLK [MORC2_Y100]
Second: CTTIHYNFMFN [TP53_Y234_C238F_YF]
The phosphorylation enrichment of the first is lower: 0.432 for the first, 1.61 for the second.

Compared with LGIDRYHAIVY [NPSR1_Y147_S143G], HFVFFYSFLLK [PTEN_Y178_R173H_YF] is higher in phosphorylation enrichment: 0.814 for the first, 2.93 for the second.

Compared with PESCLYKESWI [IQGAP2_Y630_L635I], KVKEQYQDVPM [PKP2_Y659] is lower in phosphorylation enrichment: 1.97 for the first, 0.717 for the second.

Work on KGEDFYCVTRH [FHL1_Y149_C153R] yielded a phosphorylation enrichment of 1.2.

molecular target: EPHB2 (UniProt P29323); assay: as above
Sequence (P29323 whole entry, looked up): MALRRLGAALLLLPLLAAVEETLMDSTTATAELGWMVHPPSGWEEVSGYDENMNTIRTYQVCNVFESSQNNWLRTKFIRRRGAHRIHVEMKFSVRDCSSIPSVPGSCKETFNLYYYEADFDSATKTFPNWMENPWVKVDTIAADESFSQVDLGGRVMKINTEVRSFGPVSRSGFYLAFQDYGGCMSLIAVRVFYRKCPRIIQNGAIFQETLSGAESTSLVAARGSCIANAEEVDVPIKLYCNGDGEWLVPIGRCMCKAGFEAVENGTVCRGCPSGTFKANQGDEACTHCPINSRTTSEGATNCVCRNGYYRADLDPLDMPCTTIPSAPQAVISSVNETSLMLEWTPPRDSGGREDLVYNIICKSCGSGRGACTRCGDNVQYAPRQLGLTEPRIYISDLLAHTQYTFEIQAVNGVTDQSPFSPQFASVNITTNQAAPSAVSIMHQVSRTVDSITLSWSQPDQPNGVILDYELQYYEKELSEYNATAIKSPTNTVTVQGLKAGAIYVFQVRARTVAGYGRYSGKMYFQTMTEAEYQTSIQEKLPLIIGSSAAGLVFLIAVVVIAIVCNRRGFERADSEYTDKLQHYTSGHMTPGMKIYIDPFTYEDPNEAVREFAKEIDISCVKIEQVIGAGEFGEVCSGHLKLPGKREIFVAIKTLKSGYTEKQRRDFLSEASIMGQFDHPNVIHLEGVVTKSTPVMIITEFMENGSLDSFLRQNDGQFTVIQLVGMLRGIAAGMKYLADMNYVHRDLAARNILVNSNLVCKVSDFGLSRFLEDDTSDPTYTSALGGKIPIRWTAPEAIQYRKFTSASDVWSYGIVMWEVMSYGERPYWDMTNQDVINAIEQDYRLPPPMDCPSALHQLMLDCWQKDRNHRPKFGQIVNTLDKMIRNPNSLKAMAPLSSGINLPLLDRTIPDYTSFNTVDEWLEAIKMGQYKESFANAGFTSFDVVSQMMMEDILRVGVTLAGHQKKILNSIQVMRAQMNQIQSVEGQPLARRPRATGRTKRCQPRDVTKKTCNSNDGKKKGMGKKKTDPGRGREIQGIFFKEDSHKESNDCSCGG

Compared with VPVPGYTKLPE [SPRR3_Y146], PPGRSYSPCDY [TNS1_Y793_Y796C] is higher in phosphorylation enrichment: 0.642 for the first, 0.83 for the second.

First: HELFVYKSDEN [DOCK3_Y548_C550S_YF]
Second: RFLRGYRQHAF [HLA-A_Y137_D140H_YF]
The phosphorylation enrichment of the first is higher: 0.84 for the first, 0.599 for the second.

First: SDVCMYRKNIY [SYNE2_Y570]
Second: HLTNQFMQRVA [PABPC4_Y382_Y382F]
The phosphorylation enrichment of the first is higher: 0.541 for the first, 0.35 for the second.

First: GNHISYFQSDG [CACNA1C_Y1757_V1755I_YF]
Second: ILGLEYSLRLP [HELZ2_Y1304_V1308L]
The phosphorylation enrichment of the first is lower: 0.44 for the first, 0.56 for the second.

Compared with AQQPIYVRVEG [NLRP7_Y318], PKGTGYIKTES [STAT1_Y701_L706S] is lower in phosphorylation enrichment: 4.96 for the first, 0.449 for the second.

Compared with APIEDYGGGGG [B4GALT6_Y382], RAEIVYKSPVV [MAPT_Y711_G706R] is lower in phosphorylation enrichment: 0.599 for the first, 0.507 for the second.

Going from RFGRKYKKVRF [F8_Y442_I438F] to FEELVYETVRV [FSHB_Y76_K72E], the phosphorylation enrichment rises from 0.551 to 5.12.

Compared with SPQAHYRLSAF [ADAMTS9_Y100_S96P], VHNLDYFKQTT [FGFR3_Y647_K650Q_YF] is lower in phosphorylation enrichment: 0.552 for the first, 0.545 for the second.

Going from KSIDEYLKLVG [RASAL2_Y381_E379D] to VLDSHYPEDEV [C1QBP_Y188_C186S], the phosphorylation enrichment falls from 0.596 to 0.564.

First: DFLSSYSAVNE [OAT_Y85_Q90E]
Second: MGCVNYGAFIN [GLB1_Y485_R482C_YF]
The phosphorylation enrichment of the first is lower: 0.596 for the first, 0.617 for the second.

Going from TYVVLYDAELT [ERCC4_Y581_R576T] to FVTSMYNEILI [TRPV1_Y310_M315I], the phosphorylation enrichment falls from 2.67 to 0.714.

Compared with IMICAYLLHRG [PTEN_Y138_V133I], GGSSPYSRRLA [CDK13_Y351_P356A] is lower in phosphorylation enrichment: 0.687 for the first, 0.326 for the second.

Compared with KFEDVYVGICL [B3GALNT1_Y269], NFADPYRQLQF [CTNND2_Y503_YF] is lower in phosphorylation enrichment: 0.715 for the first, 0.502 for the second.

First: TQIGQYGNGLK [MORC2_Y100]
Second: CTTIHYNFMFN [TP53_Y234_C238F_YF]
The phosphorylation enrichment of the first is lower: 0.258 for the first, 0.684 for the second.

Going from LGIDRYHAIVY [NPSR1_Y147_S143G] to HFVFFYSFLLK [PTEN_Y178_R173H_YF], the phosphorylation enrichment rises from 0.523 to 0.844.

Going from PESCLYKESWI [IQGAP2_Y630_L635I] to KVKEQYQDVPM [PKP2_Y659], the phosphorylation enrichment falls from 1.2 to 0.431.

Sequence KGEDFYCVTRH [FHL1_Y149_C153R] has a phosphorylation enrichment of 0.558.

molecular target: Fyn (UniProt P06241); assay: as above
Sequence (P06241 whole entry, looked up): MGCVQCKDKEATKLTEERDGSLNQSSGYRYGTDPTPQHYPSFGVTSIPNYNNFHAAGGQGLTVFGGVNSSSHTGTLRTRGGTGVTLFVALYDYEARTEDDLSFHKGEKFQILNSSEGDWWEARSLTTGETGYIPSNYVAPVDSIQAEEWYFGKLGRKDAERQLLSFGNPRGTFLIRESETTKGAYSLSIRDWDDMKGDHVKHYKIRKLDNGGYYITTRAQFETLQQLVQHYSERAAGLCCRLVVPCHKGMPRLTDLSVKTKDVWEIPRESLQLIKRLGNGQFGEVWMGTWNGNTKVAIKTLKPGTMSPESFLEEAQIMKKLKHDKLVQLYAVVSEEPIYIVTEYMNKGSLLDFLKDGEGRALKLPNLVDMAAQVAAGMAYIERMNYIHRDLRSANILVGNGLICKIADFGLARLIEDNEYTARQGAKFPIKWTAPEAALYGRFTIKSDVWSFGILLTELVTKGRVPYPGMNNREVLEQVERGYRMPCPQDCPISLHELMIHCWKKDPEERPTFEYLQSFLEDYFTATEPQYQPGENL

First: VPVPGYTKLPE [SPRR3_Y146]
Second: PPGRSYSPCDY [TNS1_Y793_Y796C]
The phosphorylation enrichment of the first is lower: 0.464 for the first, 0.922 for the second.

Compared with HELFVYKSDEN [DOCK3_Y548_C550S_YF], RFLRGYRQHAF [HLA-A_Y137_D140H_YF] is lower in phosphorylation enrichment: 0.734 for the first, 0.648 for the second.

First: SDVCMYRKNIY [SYNE2_Y570]
Second: HLTNQFMQRVA [PABPC4_Y382_Y382F]
The phosphorylation enrichment of the first is lower: 0.416 for the first, 0.437 for the second.

Going from GNHISYFQSDG [CACNA1C_Y1757_V1755I_YF] to ILGLEYSLRLP [HELZ2_Y1304_V1308L], the phosphorylation enrichment rises from 0.418 to 0.628.

Compared with AQQPIYVRVEG [NLRP7_Y318], PKGTGYIKTES [STAT1_Y701_L706S] is lower in phosphorylation enrichment: 2.18 for the first, 0.466 for the second.

Compared with APIEDYGGGGG [B4GALT6_Y382], RAEIVYKSPVV [MAPT_Y711_G706R] is lower in phosphorylation enrichment: 0.566 for the first, 0.482 for the second.

First: RFGRKYKKVRF [F8_Y442_I438F]
Second: FEELVYETVRV [FSHB_Y76_K72E]
The phosphorylation enrichment of the first is lower: 0.82 for the first, 7.8 for the second.

Going from SPQAHYRLSAF [ADAMTS9_Y100_S96P] to VHNLDYFKQTT [FGFR3_Y647_K650Q_YF], the phosphorylation enrichment rises from 0.425 to 0.652.

Going from KSIDEYLKLVG [RASAL2_Y381_E379D] to VLDSHYPEDEV [C1QBP_Y188_C186S], the phosphorylation enrichment rises from 0.406 to 0.473.

First: DFLSSYSAVNE [OAT_Y85_Q90E]
Second: MGCVNYGAFIN [GLB1_Y485_R482C_YF]
The phosphorylation enrichment of the first is lower: 0.531 for the first, 0.553 for the second.

First: TYVVLYDAELT [ERCC4_Y581_R576T]
Second: FVTSMYNEILI [TRPV1_Y310_M315I]
The phosphorylation enrichment of the first is higher: 0.87 for the first, 0.682 for the second.

Compared with IMICAYLLHRG [PTEN_Y138_V133I], GGSSPYSRRLA [CDK13_Y351_P356A] is lower in phosphorylation enrichment: 0.709 for the first, 0.426 for the second.

Going from KFEDVYVGICL [B3GALNT1_Y269] to NFADPYRQLQF [CTNND2_Y503_YF], the phosphorylation enrichment falls from 3.06 to 0.473.

First: TQIGQYGNGLK [MORC2_Y100]
Second: CTTIHYNFMFN [TP53_Y234_C238F_YF]
The phosphorylation enrichment of the first is lower: 0.352 for the first, 0.52 for the second.

First: LGIDRYHAIVY [NPSR1_Y147_S143G]
Second: HFVFFYSFLLK [PTEN_Y178_R173H_YF]
The phosphorylation enrichment of the first is lower: 0.442 for the first, 1.07 for the second.

Going from PESCLYKESWI [IQGAP2_Y630_L635I] to KVKEQYQDVPM [PKP2_Y659], the phosphorylation enrichment falls from 0.493 to 0.446.

Work on KGEDFYCVTRH [FHL1_Y149_C153R] yielded a phosphorylation enrichment of 0.633.

system: Fer (mouse); assay: as above

Compared with VPVPGYTKLPE [SPRR3_Y146], PPGRSYSPCDY [TNS1_Y793_Y796C] is higher in phosphorylation enrichment: 0.473 for the first, 0.602 for the second.

Compared with HELFVYKSDEN [DOCK3_Y548_C550S_YF], RFLRGYRQHAF [HLA-A_Y137_D140H_YF] is lower in phosphorylation enrichment: 0.927 for the first, 0.598 for the second.

Going from SDVCMYRKNIY [SYNE2_Y570] to HLTNQFMQRVA [PABPC4_Y382_Y382F], the phosphorylation enrichment rises from 0.491 to 0.527.

Compared with GNHISYFQSDG [CACNA1C_Y1757_V1755I_YF], ILGLEYSLRLP [HELZ2_Y1304_V1308L] is higher in phosphorylation enrichment: 0.39 for the first, 0.649 for the second.

Compared with AQQPIYVRVEG [NLRP7_Y318], PKGTGYIKTES [STAT1_Y701_L706S] is lower in phosphorylation enrichment: 0.707 for the first, 0.392 for the second.

First: APIEDYGGGGG [B4GALT6_Y382]
Second: RAEIVYKSPVV [MAPT_Y711_G706R]
The phosphorylation enrichment of the first is higher: 0.505 for the first, 0.363 for the second.

First: RFGRKYKKVRF [F8_Y442_I438F]
Second: FEELVYETVRV [FSHB_Y76_K72E]
The phosphorylation enrichment of the first is lower: 0.619 for the first, 12.8 for the second.

First: SPQAHYRLSAF [ADAMTS9_Y100_S96P]
Second: VHNLDYFKQTT [FGFR3_Y647_K650Q_YF]
The phosphorylation enrichment of the first is lower: 0.436 for the first, 0.48 for the second.

Going from KSIDEYLKLVG [RASAL2_Y381_E379D] to VLDSHYPEDEV [C1QBP_Y188_C186S], the phosphorylation enrichment rises from 0.374 to 0.51.

Compared with DFLSSYSAVNE [OAT_Y85_Q90E], MGCVNYGAFIN [GLB1_Y485_R482C_YF] is lower in phosphorylation enrichment: 0.525 for the first, 0.522 for the second.

Compared with TYVVLYDAELT [ERCC4_Y581_R576T], FVTSMYNEILI [TRPV1_Y310_M315I] is higher in phosphorylation enrichment: 0.515 for the first, 6.66 for the second.

Going from IMICAYLLHRG [PTEN_Y138_V133I] to GGSSPYSRRLA [CDK13_Y351_P356A], the phosphorylation enrichment falls from 0.827 to 0.344.

First: KFEDVYVGICL [B3GALNT1_Y269]
Second: NFADPYRQLQF [CTNND2_Y503_YF]
The phosphorylation enrichment of the first is higher: 2.52 for the first, 0.436 for the second.

Compared with TQIGQYGNGLK [MORC2_Y100], CTTIHYNFMFN [TP53_Y234_C238F_YF] is higher in phosphorylation enrichment: 0.387 for the first, 0.789 for the second.

First: LGIDRYHAIVY [NPSR1_Y147_S143G]
Second: HFVFFYSFLLK [PTEN_Y178_R173H_YF]
The phosphorylation enrichment of the first is lower: 0.408 for the first, 1.01 for the second.

Compared with PESCLYKESWI [IQGAP2_Y630_L635I], KVKEQYQDVPM [PKP2_Y659] is lower in phosphorylation enrichment: 1.26 for the first, 0.36 for the second.

KGEDFYCVTRH [FHL1_Y149_C153R] showed a phosphorylation enrichment of 0.662.
